Measurements as given in patent US10745439B2, “Kinase substrates and methods of use thereof” (REGENTS OF THE UNIVERSITY OF MINNESOTA, priority 2017, dated 2020).
Ends that are not written are not given here. * marks the point of attachment. Biotin = O=C1N[C@H]2[C@H](CS[C@H]2CCCCC(=O)*)N1

Assays:
[1] = biological target: Akt (Homo sapiens, UniProt P31749); assay: in vitro time-course kinase assay with Akt and Aktide biosensor (MALDI/TOF/TOF-MS readout); assay type: biochemical; conditions: 15 nM kinase, 20 μM peptide, 100 μM ATP, 37° C., time points 0, 30, 60, 120 min; result after 2 hr
Protocol: FIG. 7. […] The abundance of the biosensor (labeled “Aktide”) and its phosphorylated version (labeled “phospho Aktide”) are shown over four different time points (0, 30, 60, 120 min) which represent the amount of time the peptide was incubated with the kinase.
The in vitro kinase assay was performed with Akt and Aktide biosensor (RRRRRSVDSHGGKbiotinGG (SEQ ID NO:11)). First, the kinase (15 nM final concentration) was pre-incubated in kinase reaction buffer (10 mM HEPES, 10 mM MgCl2, 0.125 ng/μL BSA, 100 μM adenosine triphosphate (ATP), pH 7.5) for 15 minutes. Then the substrate peptide, Aktide (20 μM final concentration), was added and the reaction was kept at 37° C. The reaction was monitored at different time points by removing 20 μL aliquots and quenching with 10 μL of 6 M urea at 0, 30, 60, and 120 minutes. The samples were then desalted with C18 zip tips according to the manufacturer's protocol and analyzed on an Applied Biosystems-Sciex 5800 MALDI/TOF/TOF-MS.

[2] = biological target: T1, LKB1 (Homo sapiens, UniProt Q15831); assay: in vitro kinase assay screen with LKB1 and candidate biosensor peptides (LC ESI-MS readout); assay type: biochemical; conditions: 15 nM kinase, 20 μM peptide, 100 μM ATP, 37° C., 3 hr reaction
T1 sequence (Q15831 1-433): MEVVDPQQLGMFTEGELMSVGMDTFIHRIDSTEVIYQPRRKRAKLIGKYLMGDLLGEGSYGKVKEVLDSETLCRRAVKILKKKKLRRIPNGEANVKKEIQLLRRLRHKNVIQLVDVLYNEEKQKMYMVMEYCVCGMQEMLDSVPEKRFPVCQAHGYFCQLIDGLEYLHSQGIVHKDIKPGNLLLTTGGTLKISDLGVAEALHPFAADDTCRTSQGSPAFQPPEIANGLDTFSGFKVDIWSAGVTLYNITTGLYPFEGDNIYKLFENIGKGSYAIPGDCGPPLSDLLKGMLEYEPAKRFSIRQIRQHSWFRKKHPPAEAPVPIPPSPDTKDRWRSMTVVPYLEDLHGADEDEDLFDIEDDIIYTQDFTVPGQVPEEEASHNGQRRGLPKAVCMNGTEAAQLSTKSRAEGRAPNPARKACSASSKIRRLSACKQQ
T1 sequence (Q7RTN6 1-431 partner): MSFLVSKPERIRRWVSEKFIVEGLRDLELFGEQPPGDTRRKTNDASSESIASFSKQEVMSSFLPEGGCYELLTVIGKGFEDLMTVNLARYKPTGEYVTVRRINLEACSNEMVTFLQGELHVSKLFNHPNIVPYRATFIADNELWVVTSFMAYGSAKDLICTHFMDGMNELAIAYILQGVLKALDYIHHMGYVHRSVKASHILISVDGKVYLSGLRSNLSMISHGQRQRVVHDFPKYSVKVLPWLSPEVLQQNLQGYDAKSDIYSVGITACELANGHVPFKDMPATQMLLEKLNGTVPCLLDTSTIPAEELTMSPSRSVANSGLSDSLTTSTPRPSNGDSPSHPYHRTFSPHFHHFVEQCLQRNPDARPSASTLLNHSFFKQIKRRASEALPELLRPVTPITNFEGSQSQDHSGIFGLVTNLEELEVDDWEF
T1 sequence (Q9Y376 1-341 partner): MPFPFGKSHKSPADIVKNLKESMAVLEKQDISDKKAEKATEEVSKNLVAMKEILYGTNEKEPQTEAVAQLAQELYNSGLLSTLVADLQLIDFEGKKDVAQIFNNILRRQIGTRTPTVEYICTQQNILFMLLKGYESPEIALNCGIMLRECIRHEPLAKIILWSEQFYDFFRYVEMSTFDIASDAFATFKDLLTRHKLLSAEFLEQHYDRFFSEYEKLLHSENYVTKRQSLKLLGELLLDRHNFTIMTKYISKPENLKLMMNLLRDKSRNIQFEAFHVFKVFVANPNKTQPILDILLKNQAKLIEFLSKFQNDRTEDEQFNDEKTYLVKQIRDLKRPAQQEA
Protocol: FIGS. 8A-B. FIG. 8A. Results from an initial kinase assay with LKB1 testing candidate biosensor peptide substrate WHLQTWCGYGGKbiotinGG (SEQ ID NO:12). The data shown is the abundance of the peptide and its phosphorylated version (SEQ ID NO:14) after incubation with the kinase for 3 hr. FIG. 8B. Zoomed in version of the spectrum showing relative abundance.
The in vitro kinase assay screen was performed with LKB1 and the candidate biosensor sequence (WHLQTWCGYGGKbiotinGG (SEQ ID NO:12)). First the kinase, (15 nM final concentration), was pre-incubated in kinase reaction buffer (10 mM HEPES, 10 mM MgCl2, 0.125 ng/μL BSA, 100 μM adenosine triphosphate (ATP), pH 7.5) for 15 minutes. Then the substrate peptide, (20 μM final concentration), was added and the reaction was kept at 37° C. The reaction was quenched with 6 M urea and then the sample was desalted with C18 zip tips according to the manufacturer's protocol and analyzed on an Agilent 1200 series LC and Agilent 6130 quadrupole ESI-MS.

Akt, sequence (P31749 whole entry): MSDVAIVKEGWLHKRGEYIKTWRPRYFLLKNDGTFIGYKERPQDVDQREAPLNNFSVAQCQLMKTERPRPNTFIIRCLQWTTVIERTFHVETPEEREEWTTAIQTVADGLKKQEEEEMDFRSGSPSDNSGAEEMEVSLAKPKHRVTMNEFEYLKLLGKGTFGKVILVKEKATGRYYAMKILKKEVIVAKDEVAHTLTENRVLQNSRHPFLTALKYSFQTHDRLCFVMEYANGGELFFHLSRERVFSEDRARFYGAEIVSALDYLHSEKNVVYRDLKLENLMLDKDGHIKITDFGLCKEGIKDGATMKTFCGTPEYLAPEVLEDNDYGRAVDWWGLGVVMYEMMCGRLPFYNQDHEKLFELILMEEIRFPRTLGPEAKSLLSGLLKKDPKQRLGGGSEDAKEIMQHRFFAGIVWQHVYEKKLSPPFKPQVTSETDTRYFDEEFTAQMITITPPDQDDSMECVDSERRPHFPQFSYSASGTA

phosphorylation of the peptide substrate by LKB1 [2]	Substance	phosphorylation of the peptide substrate by Akt (conversion to phosphorylated product) [1]
–	RRRRRSVDSHGGKbiotinGG (RRRRRSVDSHGGK(Biotin)GG) [artificial Akt substrate peptide biosensor with C-terminal -GGKbiotinGG tag]	Nearly complete conversion to phosphorylated product
partially phosphorylated	WHLQTWCGYGGKbiotinGG (WHLQTWCGYGGK(Biotin)GG) [candidate LKB1 biosensor peptide substrate with C-terminal -GGKbiotinGG tag]	–
